From patent US20260234245A1 (ELTHERA, published 2026)

Molecular target: T1, soluble His-tagged human L1CAM (extracellular portion, amino acids 20 to 1120) (human, UniProt P32004 20-1120)
T1 construct: range 20-1120; Expressed in HEK cells with an N-terminal leader peptide for secretion (not part of the assayed protein)
Assay: SPR (Biacore T200), antibody captured on Protein A chip, His-tagged human L1CAM as analyte 5, 10, 20, 40 nM, 1:1 Langmuir fit
Method: (§1) Monovalent kinetic binding constants of the eight humanized antibody variants towards human L1CAM were determined by surface plasmon resonance using a Biacore T200 instrument. Antibodies were captured via their Fc regions on a C1 Protein A Chip (GE Healthcare), and soluble His-tagged human L1CAM was injected as analyte in 3 different concentrations (10, 20 and 40 nM), using 10 mM HEPES/150 mM NaCl/3 mM EDTA/0.05% Tween 20 as running buffer. Detected resonance units (sensorgrams) were fitted to a 1:1 Langmuir binding model and association (kₐ) and dissociation (kd) rate constants as well as the affinity constants (KD) were calculated.
The monovalent kinetic binding constants towards human L1CAM were determined by surface plasmon resonance using a Biacore T200 instrument as described in Example 4, except that soluble His-tagged human L1CAM was injected in 4 different concentrations (5, 10, 20 and 40 nM).

T1 sequence (P32004 other isoform, or with tags, fused parts or gaps limits assumed): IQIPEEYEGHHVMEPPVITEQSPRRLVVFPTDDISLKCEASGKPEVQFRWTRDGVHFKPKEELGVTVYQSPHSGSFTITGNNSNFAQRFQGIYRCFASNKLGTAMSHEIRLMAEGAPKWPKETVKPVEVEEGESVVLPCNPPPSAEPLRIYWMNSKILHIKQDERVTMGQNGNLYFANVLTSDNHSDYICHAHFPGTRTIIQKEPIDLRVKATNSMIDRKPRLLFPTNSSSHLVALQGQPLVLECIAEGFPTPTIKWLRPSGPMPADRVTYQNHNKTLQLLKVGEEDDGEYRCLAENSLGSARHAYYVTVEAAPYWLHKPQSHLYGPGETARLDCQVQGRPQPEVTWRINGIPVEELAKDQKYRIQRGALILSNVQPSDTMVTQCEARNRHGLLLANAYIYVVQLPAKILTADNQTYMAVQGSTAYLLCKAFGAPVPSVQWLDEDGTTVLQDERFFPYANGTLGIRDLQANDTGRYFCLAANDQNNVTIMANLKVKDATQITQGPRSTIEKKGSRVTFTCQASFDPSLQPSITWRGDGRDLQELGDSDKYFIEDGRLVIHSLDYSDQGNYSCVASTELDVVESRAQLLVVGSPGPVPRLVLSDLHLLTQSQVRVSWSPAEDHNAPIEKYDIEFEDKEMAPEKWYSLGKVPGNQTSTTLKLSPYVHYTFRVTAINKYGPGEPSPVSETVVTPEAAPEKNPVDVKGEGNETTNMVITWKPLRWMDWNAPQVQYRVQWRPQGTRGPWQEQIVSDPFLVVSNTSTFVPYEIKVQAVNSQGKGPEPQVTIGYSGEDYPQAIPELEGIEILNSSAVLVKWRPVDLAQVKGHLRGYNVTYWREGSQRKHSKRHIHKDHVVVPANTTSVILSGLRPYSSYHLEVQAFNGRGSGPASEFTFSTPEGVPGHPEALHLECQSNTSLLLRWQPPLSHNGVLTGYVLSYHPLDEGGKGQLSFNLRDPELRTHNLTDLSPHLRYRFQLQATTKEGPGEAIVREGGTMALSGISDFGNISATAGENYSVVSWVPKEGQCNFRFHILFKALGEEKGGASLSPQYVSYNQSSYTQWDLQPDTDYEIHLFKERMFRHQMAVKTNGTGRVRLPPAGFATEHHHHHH

Kd [nM]	koff [s⁻¹]	kon [M⁻¹ s⁻¹]	Binder
0.98	0.000337	345000	AFF6 (antibody, human IgG1, V domains shown) VH: QVQLQESGPGLVKPSQTLSLTCTVTGYSITSDYTWNWIRQFPGKGLEWMGYISYSGSFSYNPSLKSRVTISRDTSKNQFSLKLSSVTAADTAVYYCARSLSYGYGFAYWGQGTLVTVSS VL: DIQMTQSPSSLSASVGDRVTITCKASQDVSSAVAWYQQKPGKAPKLLIYSASYRYTGVPSRFSGSGSGTDFTFTISSLQPEDFATYYCQQHYSTPWTFGGGTKVEIK
0.3	0.000116	383000	AFF8 (antibody, human IgG1, V domains shown) VH: QVQLQESGPGLVKPSQTLSLTCTVTGYSITSDYTWNWIRQFPGKGLEWMGYISYSGSFSYNPSLKSRVTISRDTSKNQFSLKLSSVTAADTAVYYCARSFSYSYGFAYWGQGTLVTVSS VL: DIQMTQSPSSLSASVGDRVTITCKASQDVSSAVAWYQQKPGKAPKLLIYSASYRYIGVPSRFSGSGSGTDFTFTISSLQPEDFATYYCQQHYSTPWTFGGGTKVEIK
0.36	0.000104	290000	AFF1 (antibody, human IgG1, V domains shown) VH: QVQLQESGPGLVKPSQTLSLTCTVTGYSITSDYAWNWIRQFPGKGLEWMGYISYSGSFSYNPSLKSRVTISRDTSKNQFSLKLSSVTAADTAVYYCARSFSYSYGFAYWGQGTLVTVSS VL: DIQMTQSPSSLSASVGDRVTITCKASQDVSSAVAWYQQKPGKAPKLLIYSASYRYTGVPSRFSGSGSGTDFTFTISSLQPEDFATYYCQQHYSTPWTFGGGTKVEIK
0.36	9.28e-05	258000	AFF9 (antibody, human IgG1, V domains shown) VH: QVQLQESGPGLVKPSQTLSLTCTVTGYSITSDYAWNWIRQFPGKGLEWMGYISYSGSYSYNPSLKSRVTISRDTSKNQFSLKLSSVTAADTAVYYCARSFSYAYGFAYWGQGTLVTVSS VL: DIQMTQSPSSLSASVGDRVTITCKASQDVSSAVAWYQQKPGKAPKLLIYSASYRYTGVPSRFSGSGSGTDFTFTISSLQPEDFATYYCQQHYSTPWTFGGGTKVEIK
0.99	0.000251	255000	AFF10 (antibody, human IgG1, V domains shown) VH: QVQLQESGPGLVKPSQTLSLTCTVTGYSITSDYTWNWIRQFPGKGLEWMGYISYSGSYSYHPSLKSRVTISRDTSKNQFSLKLSSVTAADTAVYYCARSFSYGYGFAYWGQGTLVTVSS VL: DIQMTQSPSSLSASVGDRVTITCKASQDVSSAVAWYQQKPGKAPKLLIYSASYRYTGVPSRFSGSGSGTDFTFTISSLQPEDFATYYCQQHYSTPWTFGGGTKVEIK
0.31	0.000126	411000	AFF2 (antibody, human IgG1, V domains shown) VH: QVQLQESGPGLVKPSQTLSLTCTVTGYSITSDYTWNWIRQFPGKGLEWMGYISYSGSFSYNPSLKSRVTISRDTSKNQFSLKLSSVTAADTAVYYCARSFSYSYGFAYWGQGTLVTVSS VL: DIQMTQSPSSLSASVGDRVTITCKASQDVSSAVAWYQQKPGKAPKLLIYSASYRYTGVPSRFSGSGSGTDFTFTISSLQPEDFATYYCQQHYSTPWTFGGGTKVEIK
0.22	6.52e-05	299000	AFF3 (antibody, human IgG1, V domains shown) VH: QVQLQESGPGLVKPSQTLSLTCTVTGYSITSDYAWNWIRQFPGKGLEWMGYISYSGSYSYNPSLKSRVTISRDTSKNQFSLKLSSVTAADTAVYYCARSFSYSYGFAYWGQGTLVTVSS VL: DIQMTQSPSSLSASVGDRVTITCKASQDVSSAVAWYQQKPGKAPKLLIYSASYRYTGVPSRFSGSGSGTDFTFTISSLQPEDFATYYCQQHYSTPWTFGGGTKVEIK
0.32	8.83e-05	273000	AFF7 (antibody, human IgG1, V domains shown) VH: QVQLQESGPGLVKPSQTLSLTCTVTGYSITSDYAWNWIRQFPGKGLEWMGYISYSGSFSYNPSLKSRVTISRDTSKNQFSLKLSSVTAADTAVYYCARSFSYSYGFAYWGQGTLVTVSS VL: DIQMTQSPSSLSASVGDRVTITCKASQDVSSAVAWYQQKPGKAPKLLIYSASYRYIGVPSRFSGSGSGTDFTFTISSLQPEDFATYYCQQHYSTPWTFGGGTKVEIK
0.72	0.000252	349000	AFF5 (antibody, human IgG1, V domains shown) VH: QVQLQESGPGLVKPSQTLSLTCTVTGYSITSDYTWNWIRQFPGKGLEWMGYISYSGSYSYHPSLKSRVTISRDTSKNQFSLKLSSVTAADTAVYYCARSLSYGYGFAYWGQGTLVTVSS VL: DIQMTQSPSSLSASVGDRVTITCKASQDVSSAVAWYQQKPGKAPKLLIYSASYRYTGVPSRFSGSGSGTDFTFTISSLQPEDFATYYCQQHYSTPWTFGGGTKVEIK
0.2	8.45e-05	416000	Humanized optimized antibody “AFF4” (human IgG format; with G236A/S239D/A330L/I332E mutations) (antibody, also called AFF4 antibody) heavy: QVQLQESGPGLVKPSQTLSLTCTVTGYSITSDYTWNWIRQFPGKGLEWMGYISYSGSYSYNPSLKSRVTISRDTSKNQFSLKLSSVTAADTAVYYCARSFSYSYGFAYWGQGTLVTVSSASTKGPSVFPLAPSSKSTSGGTAALGCLVKDYFPEPVTVSWNSGALTSGVHTFPAVLQSSGLYSLSSVVTVPSSSLGTQTYICNVNHKPSNTKVDKRVEPKSCDKTHTCPPCPAPELLAGPDVFLFPPKPKDTLMISRTPEVTCVVVDVSHEDPEVKFNWYVDGVEVHNAKTKPREEQYNSTYRVVSVLTVLHQDWLNGKEYKCKVSNKALPLPEEKTISKAKGQPREPQVYTLPPSREEMTKNQVSLTCLVKGFYPSDIAVEWESNGQPENNYKTTPPVLDSDGSFFLYSKLTVDKSRWQQGNVFSCSVMHEALHNHYTQKSLSLSPG light: not shown

Molecular target: T1, soluble His-tagged human L1CAM …
Assay: SPR (Biacore T200), antibody captured on C1 Protein A chip, His-tagged human L1CAM as analyte 10, 20, 40 nM, 1:1 Langmuir fit
Method: as §1

Kd [nM]	koff [s⁻¹]	kon [M⁻¹ s⁻¹]	Binder
4.5	0.00079	177000	H1L1 (antibody, V domains shown, also called humanized antibody variant H1L1; parental antibody H1L1) VH: QVQLQESGPGLVKPSQTLSLTCTVTGYSITSDYAWNWIRQFPGKGLEWMGYISYSGSFSYHPSLKSRVTISRDTSKNQFSLKLSSVTAADTAVYYCARSFSYGYGFAYWGQGTLVTVSS VL: DIQMTQSPSSLSASVGDRVTITCKASQDVSSAVAWYQQKPGKAPKLLIYSASYRYTGVPSRFSGSGSGTDFTFTISSLQPEDFATYYCQQHYSTPWTFGGGTKVEIK
6	0.000867	144000	H2L2 (antibody, V domains shown, also called humanized antibody variant H2L2) VH: QVQLQESGPGLVKPSQTLSLTCTVTGYSITSDYAWNWIRQFPGNGLEWIGYISYSGSFSYHPSLKSRVTISRDTSKNQFSLKLSSVTAADTAVYYCARSFSYGYGFAYWGQGTLVTVSS VL: DIVMTQSPSSLSASVGDRVTITCKASQDVSSAVAWYQQKPGQSPKLLIYSASYRYTGVPDRFSGSGSGTDFTFTISSLQPEDFATYYCQQHYSTPWTFGGGTKLEIK
6.8	0.000887	131000	H3L2 (antibody, V domains shown, also called humanized antibody variant H3L2) VH: QVQLQESGPGLVKPSQTLSLTCTVTGYSITSDYAWNWIRQFPGNGLEWMGYISYSGSFSYHPSLKSRVTISRDTSKNQFSLKLSSVTAADTAVYYCARSFSYGYGFAYWGQGTLVTVSS VL: DIVMTQSPSSLSASVGDRVTITCKASQDVSSAVAWYQQKPGQSPKLLIYSASYRYTGVPDRFSGSGSGTDFTFTISSLQPEDFATYYCQQHYSTPWTFGGGTKLEIK
6.1	0.000872	144000	H1L2 (antibody, V domains shown, also called humanized antibody variant H1L2) VH: QVQLQESGPGLVKPSQTLSLTCTVTGYSITSDYAWNWIRQFPGKGLEWMGYISYSGSFSYHPSLKSRVTISRDTSKNQFSLKLSSVTAADTAVYYCARSFSYGYGFAYWGQGTLVTVSS VL: DIVMTQSPSSLSASVGDRVTITCKASQDVSSAVAWYQQKPGQSPKLLIYSASYRYTGVPDRFSGSGSGTDFTFTISSLQPEDFATYYCQQHYSTPWTFGGGTKLEIK
5.1	0.000858	168000	H3L1 (antibody, V domains shown, also called humanized antibody variant H3L1) VH: QVQLQESGPGLVKPSQTLSLTCTVTGYSITSDYAWNWIRQFPGNGLEWMGYISYSGSFSYHPSLKSRVTISRDTSKNQFSLKLSSVTAADTAVYYCARSFSYGYGFAYWGQGTLVTVSS VL: DIQMTQSPSSLSASVGDRVTITCKASQDVSSAVAWYQQKPGKAPKLLIYSASYRYTGVPSRFSGSGSGTDFTFTISSLQPEDFATYYCQQHYSTPWTFGGGTKVEIK
4.4	0.000751	170000	H2L1 (antibody, V domains shown, also called humanized antibody variant H2L1) VH: QVQLQESGPGLVKPSQTLSLTCTVTGYSITSDYAWNWIRQFPGNGLEWIGYISYSGSFSYHPSLKSRVTISRDTSKNQFSLKLSSVTAADTAVYYCARSFSYGYGFAYWGQGTLVTVSS VL: DIQMTQSPSSLSASVGDRVTITCKASQDVSSAVAWYQQKPGKAPKLLIYSASYRYTGVPSRFSGSGSGTDFTFTISSLQPEDFATYYCQQHYSTPWTFGGGTKVEIK
4.7	0.000847	179000	H4L1 (antibody, V domains shown, also called humanized antibody variant H4L1) VH: QVQLQESGPGLVKPSQTLSLTCTVTGYSITSDYAWNWIRQFPGNKVEWMGYISYSGSFSYHPSLKSRVTISRDTSKNQFSLKLSSVTAADTAVYYCARSFSYGYGFAYWGQGTLVTVSS VL: DIQMTQSPSSLSASVGDRVTITCKASQDVSSAVAWYQQKPGKAPKLLIYSASYRYTGVPSRFSGSGSGTDFTFTISSLQPEDFATYYCQQHYSTPWTFGGGTKVEIK
